Paper doi:10.1101/2023.07.10.548322

Key:
Experiment in all cases: SPR
[1] = target: alpha-synuclein (aSyn) WT (human, UniProt P37840 1-140)
aSyn dNAC = aSyn dNAC (UniProt P37840 1-140, del61-95)
aSyn dCterm = aSyn dCterm (UniProt P37840 1-95, del96-140)

Row | Binder | Kd [1] | binding result (aSyn dNAC) | binding result (aSyn dCterm) | binding result [1]
1 | UUAGGGUUAGGGUUAGGGUUAGGG (structured_RNA) [G4tr biotin] | 3.63 ± 0.63 µM | binds | binds | 
2 | UUACCGUUACCGUUACCGUUACCG (ssRNA) [G4mt biotin] |  |  |  | no binding
